Data published in PMC3085951 (Journal of controlled release : official journal of the …, 2011).

How the values were obtained:
[1] = molecular target: T1, MT1-160p (MT1-MMP amino acids 160-174) (human); experiment: ELISA
T1 peptide: REVPYAYIREGHEKQ

[2] = molecular target: recombinant human MT1-MMP catalytic domain (human, UniProt P50281 114-287); experiment: ELISA

B1: phage-displayed MT1-AF7p (peptide)
chain: HWKHLHNTKTFL
With B1 the Kd [1] was 0.075 nM.

B2: MT1-AF7p (peptide)
peptide: HWKHLHNTKTFL
Work on B2 yielded a Kd [2] of 47.4 nM.
